The record followed here is patent US20230235013A1 (MABSOLVE, published 2023).

Substitutions are numbered along the chain they refer to. Names may count otherwise.

The test deals with T1, Histidine-tagged recombinant human FcγRI (CD64) (human, UniProt P12314 16-288).
T1 construct: bought; also called Sino Biological Cat. No. 12056-H08H
The test is described as follows: SPR, culture supernatant, captured His-FcγRI.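 Further: biacore T200 SPR at 25 °C, anti-His capture, supernatants of HEK293 cells expressing IgG1 Fc variants injected 1 min, reference-subtracted response read 55 s after injection start.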

Protocol: Binding analysis was carried out by surface plasmon resonance at 25° C. using a Biacore® T200 instrument with Biacore® T200 control software. The running buffer (HBS-EP+) consisted of 0.01 M HEPES pH 7.4, containing 0.15 M NaCl, 3 mM EDTA, and 0.05% v/v Surfactant P20. The sample compartment was held at 4° C. during analysis.
The cell was activated by treatment with EDC/NHS for 7 min. The antibody was diluted to 5 μg/mL in 10 mM sodium acetate pH 4.5 and injected for 7 min at 5 μL/min. The flow cell was deactivated by injection of 1M ethanolamine for 7 min. This process was repeated in the absence of anti-his antibody on a separate flow cell to generate a reference surface. […] Samples of undiluted culture supernatants from HEK293 cells expressing human IgG1 antibodies comprising variant Fc regions were injected for 1 min at 30 μL/min and allowed to disassociate for 2 min. […] Therefore, regeneration between cycles was not necessary. Responses on the test flow cell (coupled with anti-His antibody) were analysed after subtraction of responses on the control flow cell (sham-coupled). The relative binding response was measured 55 sec after the beginning of sample injection. To account for any possible drift in response due to slow dissociation of the His-tagged FcγRI, the binding response was measured relative to a baseline interpolated between report points located before sample injection and at the end of dissociation.
The whole experiment was repeated three times. Due to the relatively crude nature of the samples (variable refractive index, presence of culture media and other cellular products), some sensorgrams were unsatisfactory and were eliminated from analysis. The mean and standard deviation of binding response was then calculated for each sample.

B1: anti-CD20 human IgG1 L234A/L235A/G236R (antibody)
heavy: not shown
light: QIVLSQSPAILSASPGEKVTMTCRASSSVSYIHWFQQKPGSSPKPWIYATSNLASGVPVRFSGSGSGTSYSLTISRVEAEDAATYYCQQWTSNPPTFGGGTKLEIKRTVAAPSVFIFPPSDEQLKSGTASVVCLLNNFYPREAKVQWKVDNALQSGNSQESVTEQDSKDSTYSLSSTLTLSKADYEKHKVYACEVTHQGLSSPVTKSFNRGEC
notes: also called 1-2; 2-2; copies: 2 + 2
For the molecule B1, the Mean binding response came out at 30.7 RU.

B2: anti-CD20 human IgG1 L234D/G236R (antibody)
heavy: not shown
light: B1 light
notes: also called 1-24; 2-8; copies: 2 + 2
With B2, the Mean binding response came to 11.9 RU.

B3: anti-CD20 human IgG1 L234E/L235A/G236R (antibody)
heavy: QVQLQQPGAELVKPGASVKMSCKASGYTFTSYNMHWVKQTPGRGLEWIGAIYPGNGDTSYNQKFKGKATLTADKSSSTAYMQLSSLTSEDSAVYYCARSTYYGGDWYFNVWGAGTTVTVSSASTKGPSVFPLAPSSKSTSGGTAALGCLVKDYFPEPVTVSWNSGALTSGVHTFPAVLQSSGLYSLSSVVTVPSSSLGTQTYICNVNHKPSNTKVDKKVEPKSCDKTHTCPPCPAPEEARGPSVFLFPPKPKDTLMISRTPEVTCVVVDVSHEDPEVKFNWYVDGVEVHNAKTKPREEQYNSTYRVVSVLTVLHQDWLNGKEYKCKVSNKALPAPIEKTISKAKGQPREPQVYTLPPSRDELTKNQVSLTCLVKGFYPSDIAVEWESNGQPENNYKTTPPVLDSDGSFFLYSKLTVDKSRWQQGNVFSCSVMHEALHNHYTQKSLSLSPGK
light: B1 light
notes: also called 1-32; copies: 2 + 2
In the case of B3, the Mean binding response was determined as 44.1 RU.

B4: anti-CD20 human IgG1 L234E/L235H/G236R (antibody)
heavy: QVQLQQPGAELVKPGASVKMSCKASGYTFTSYNMHWVKQTPGRGLEWIGAIYPGNGDTSYNQKFKGKATLTADKSSSTAYMQLSSLTSEDSAVYYCARSTYYGGDWYFNVWGAGTTVTVSSASTKGPSVFPLAPSSKSTSGGTAALGCLVKDYFPEPVTVSWNSGALTSGVHTFPAVLQSSGLYSLSSVVTVPSSSLGTQTYICNVNHKPSNTKVDKKVEPKSCDKTHTCPPCPAPEEHRGPSVFLFPPKPKDTLMISRTPEVTCVVVDVSHEDPEVKFNWYVDGVEVHNAKTKPREEQYNSTYRVVSVLTVLHQDWLNGKEYKCKVSNKALPAPIEKTISKAKGQPREPQVYTLPPSRDELTKNQVSLTCLVKGFYPSDIAVEWESNGQPENNYKTTPPVLDSDGSFFLYSKLTVDKSRWQQGNVFSCSVMHEALHNHYTQKSLSLSPGK
light: B1 light
notes: also called 1-36; 2-13; copies: 2 + 2
For the molecule B4, the Mean binding response worked out at 21.4 RU.

B5: anti-CD20 human IgG1 L234A/L235I/G236R (antibody)
heavy: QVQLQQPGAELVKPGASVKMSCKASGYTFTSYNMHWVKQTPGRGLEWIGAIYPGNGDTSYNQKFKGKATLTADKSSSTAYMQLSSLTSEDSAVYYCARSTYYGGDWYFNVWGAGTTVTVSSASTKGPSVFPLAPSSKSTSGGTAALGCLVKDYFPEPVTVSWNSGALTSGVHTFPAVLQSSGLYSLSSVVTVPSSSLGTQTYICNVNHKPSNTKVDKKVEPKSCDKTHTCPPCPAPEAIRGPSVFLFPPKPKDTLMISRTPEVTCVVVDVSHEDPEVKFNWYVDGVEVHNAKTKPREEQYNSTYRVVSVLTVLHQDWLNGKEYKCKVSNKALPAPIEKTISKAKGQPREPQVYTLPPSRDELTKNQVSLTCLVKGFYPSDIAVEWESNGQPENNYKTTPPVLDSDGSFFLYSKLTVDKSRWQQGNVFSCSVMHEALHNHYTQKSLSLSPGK
light: B1 light
notes: also called 1-7; copies: 2 + 2
Regarding B5, the Mean binding response came out at 28.4 RU.

B6: anti-CD20 human IgG1 L234A/L235Q/G236R (antibody)
heavy: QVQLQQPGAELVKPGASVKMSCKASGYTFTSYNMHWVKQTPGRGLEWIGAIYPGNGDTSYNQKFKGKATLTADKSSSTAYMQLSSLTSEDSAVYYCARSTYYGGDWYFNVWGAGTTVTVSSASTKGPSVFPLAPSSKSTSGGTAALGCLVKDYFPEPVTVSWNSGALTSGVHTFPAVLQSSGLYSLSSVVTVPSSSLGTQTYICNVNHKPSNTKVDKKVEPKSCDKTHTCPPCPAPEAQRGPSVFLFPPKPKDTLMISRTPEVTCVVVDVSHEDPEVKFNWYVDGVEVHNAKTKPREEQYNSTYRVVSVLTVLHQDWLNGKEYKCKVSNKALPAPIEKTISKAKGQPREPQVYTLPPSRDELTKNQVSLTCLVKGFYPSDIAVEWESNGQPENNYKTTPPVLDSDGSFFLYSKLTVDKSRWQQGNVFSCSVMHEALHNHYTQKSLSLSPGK
light: B1 light
notes: also called 1-12; copies: 2 + 2
B6: the Mean binding response came out at 34.3 RU.

B7: anti-CD20 human IgG1 L234D/L235R/G236R (antibody)
heavy: B4 heavy with E238D, H239R
light: B1 light
notes: also called 1-28; copies: 2 + 2
As to B7, the Mean binding response stood at 47 RU.

B8: anti-CD20 human IgG1 L234A/L235M/G236R (antibody)
heavy: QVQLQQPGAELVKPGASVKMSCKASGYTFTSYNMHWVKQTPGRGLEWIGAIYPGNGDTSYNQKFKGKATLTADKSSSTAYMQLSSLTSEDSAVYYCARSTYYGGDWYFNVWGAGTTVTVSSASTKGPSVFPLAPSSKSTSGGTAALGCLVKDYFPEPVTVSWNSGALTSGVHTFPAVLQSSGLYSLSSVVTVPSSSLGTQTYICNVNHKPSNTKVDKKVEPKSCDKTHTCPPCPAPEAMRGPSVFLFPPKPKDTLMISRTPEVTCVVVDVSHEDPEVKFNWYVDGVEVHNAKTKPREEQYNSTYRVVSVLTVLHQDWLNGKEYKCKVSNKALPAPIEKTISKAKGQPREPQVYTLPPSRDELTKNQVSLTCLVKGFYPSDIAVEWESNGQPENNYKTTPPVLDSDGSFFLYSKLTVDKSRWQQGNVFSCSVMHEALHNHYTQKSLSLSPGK
light: B1 light
notes: also called 1-10; copies: 2 + 2
B8: the Mean binding response was 27.4 RU.

B9: anti-CD20 human IgG1 L234A/L235D/G236R (antibody)
heavy: not shown
light: B1 light
notes: also called 1-3; copies: 2 + 2
As to B9, the Mean binding response was 28 RU.

B10: anti-CD20 human IgG1 L234D/L235G/G236R (antibody)
heavy: B4 heavy with E238D, H239G
light: B1 light
notes: also called 1-20; copies: 2 + 2
Consider B10, for which the Mean binding response worked out at 27.3 RU.

B11: anti-CD20 human IgG1 L234D/L235T/G236R (antibody)
heavy: B4 heavy with E238D, H239T
light: B1 light
notes: also called 1-30; 2-11; copies: 2 + 2
B11: the Mean binding response stood at 4.3 RU.

B12: anti-CD20 human IgG1 L234D/L235E/G236R (antibody)
heavy: B4 heavy with E238D, H239E
light: B1 light
notes: also called 1-19; copies: 2 + 2
With B12, the Mean binding response came out at 22.1 RU.

B13: anti-CD20 human IgG1 L234D/L235I/G236R (antibody)
heavy: B4 heavy with E238D, H239I
light: B1 light
notes: also called 1-22; copies: 2 + 2
For B13, the Mean binding response turned out to be 25.3 RU.

B14: anti-CD20 human IgG1 L234D/L235N/G236R (antibody)
heavy: B4 heavy with E238D, H239N
light: B1 light
notes: also called 1-26; copies: 2 + 2
For B14, the Mean binding response worked out at 26.5 RU.

B15: anti-CD20 human IgG1 L234D/L235A/G236R (antibody)
heavy: not shown
light: B1 light
notes: also called 1-17; copies: 2 + 2
As to B15, the Mean binding response is 29.6 RU.

B16: anti-CD20 human IgG1 L234A/L235H/G236R (antibody)
heavy: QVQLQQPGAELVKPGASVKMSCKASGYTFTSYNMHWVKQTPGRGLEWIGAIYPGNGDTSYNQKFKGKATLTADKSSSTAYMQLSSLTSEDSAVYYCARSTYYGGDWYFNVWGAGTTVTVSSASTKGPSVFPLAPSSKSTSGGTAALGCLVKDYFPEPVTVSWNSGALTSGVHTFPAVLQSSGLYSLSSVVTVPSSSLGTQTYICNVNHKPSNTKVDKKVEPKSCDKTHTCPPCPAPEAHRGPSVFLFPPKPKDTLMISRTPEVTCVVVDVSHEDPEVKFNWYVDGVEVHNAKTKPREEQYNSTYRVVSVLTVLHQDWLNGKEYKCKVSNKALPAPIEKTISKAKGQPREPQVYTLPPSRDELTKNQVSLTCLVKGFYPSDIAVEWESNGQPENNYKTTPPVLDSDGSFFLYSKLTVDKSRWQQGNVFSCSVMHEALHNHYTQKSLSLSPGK
light: B1 light
notes: also called 1-6; copies: 2 + 2
For the molecule B16, the Mean binding response amounted to 23 RU.

B17: anti-CD20 human IgG1 L234A/L235G/G236R (antibody)
heavy: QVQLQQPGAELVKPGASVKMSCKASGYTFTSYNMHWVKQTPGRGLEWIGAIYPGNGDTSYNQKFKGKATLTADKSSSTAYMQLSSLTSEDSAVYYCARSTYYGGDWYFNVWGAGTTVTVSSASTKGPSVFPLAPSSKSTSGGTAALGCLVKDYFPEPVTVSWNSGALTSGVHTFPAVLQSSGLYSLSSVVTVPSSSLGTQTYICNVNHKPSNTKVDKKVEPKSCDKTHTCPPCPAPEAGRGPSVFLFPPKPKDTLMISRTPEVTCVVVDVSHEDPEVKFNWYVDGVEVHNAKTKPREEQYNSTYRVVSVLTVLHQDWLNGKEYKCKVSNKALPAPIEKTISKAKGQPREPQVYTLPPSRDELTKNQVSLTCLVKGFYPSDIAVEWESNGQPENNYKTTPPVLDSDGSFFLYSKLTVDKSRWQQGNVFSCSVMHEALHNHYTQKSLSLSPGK
light: B1 light
notes: also called 1-5; copies: 2 + 2
As for B17, the Mean binding response turned out to be 27.6 RU.

B18: anti-CD20 human IgG1 L234E/L235G/G236R (antibody)
heavy: B4 heavy with H239G
light: B1 light
notes: also called 1-35; copies: 2 + 2
Regarding B18, the Mean binding response was found to be 71.2 RU.

B19: anti-CD20 human IgG1 L234A/L235V/G236R (antibody)
heavy: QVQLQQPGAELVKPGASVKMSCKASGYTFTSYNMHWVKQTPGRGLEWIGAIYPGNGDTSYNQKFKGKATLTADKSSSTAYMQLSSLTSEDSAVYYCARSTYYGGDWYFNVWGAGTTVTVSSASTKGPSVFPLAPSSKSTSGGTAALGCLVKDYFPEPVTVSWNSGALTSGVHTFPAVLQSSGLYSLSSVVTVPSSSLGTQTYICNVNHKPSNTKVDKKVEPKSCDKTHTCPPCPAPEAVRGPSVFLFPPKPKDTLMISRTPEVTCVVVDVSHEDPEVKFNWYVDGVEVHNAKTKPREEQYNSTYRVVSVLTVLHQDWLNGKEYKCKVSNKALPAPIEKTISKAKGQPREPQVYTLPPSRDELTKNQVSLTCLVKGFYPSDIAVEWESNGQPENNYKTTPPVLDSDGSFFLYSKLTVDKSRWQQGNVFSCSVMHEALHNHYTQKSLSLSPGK
light: B1 light
notes: also called 1-16; copies: 2 + 2
Turning to B19, the Mean binding response was determined as 25.8 RU.

B20: anti-CD20 human IgG1 L234E/G236R (antibody)
heavy: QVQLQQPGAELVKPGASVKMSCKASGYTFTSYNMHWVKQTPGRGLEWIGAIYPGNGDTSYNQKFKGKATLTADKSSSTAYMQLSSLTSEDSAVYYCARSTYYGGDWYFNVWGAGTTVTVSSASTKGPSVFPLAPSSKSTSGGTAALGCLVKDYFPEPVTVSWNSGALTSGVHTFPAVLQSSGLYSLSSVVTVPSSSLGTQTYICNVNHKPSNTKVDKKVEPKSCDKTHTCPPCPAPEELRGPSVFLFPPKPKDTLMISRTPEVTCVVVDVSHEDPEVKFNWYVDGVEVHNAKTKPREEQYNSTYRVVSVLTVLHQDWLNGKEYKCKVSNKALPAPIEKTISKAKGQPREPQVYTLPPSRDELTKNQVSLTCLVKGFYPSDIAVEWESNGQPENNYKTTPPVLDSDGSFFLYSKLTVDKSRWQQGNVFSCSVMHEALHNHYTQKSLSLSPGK
light: B1 light
notes: also called 1-39; 2-15; copies: 2 + 2
B20: the Mean binding response was found to be 17.6 RU.

B21: anti-CD20 human IgG1 L234A/L235R/G236R (antibody)
heavy: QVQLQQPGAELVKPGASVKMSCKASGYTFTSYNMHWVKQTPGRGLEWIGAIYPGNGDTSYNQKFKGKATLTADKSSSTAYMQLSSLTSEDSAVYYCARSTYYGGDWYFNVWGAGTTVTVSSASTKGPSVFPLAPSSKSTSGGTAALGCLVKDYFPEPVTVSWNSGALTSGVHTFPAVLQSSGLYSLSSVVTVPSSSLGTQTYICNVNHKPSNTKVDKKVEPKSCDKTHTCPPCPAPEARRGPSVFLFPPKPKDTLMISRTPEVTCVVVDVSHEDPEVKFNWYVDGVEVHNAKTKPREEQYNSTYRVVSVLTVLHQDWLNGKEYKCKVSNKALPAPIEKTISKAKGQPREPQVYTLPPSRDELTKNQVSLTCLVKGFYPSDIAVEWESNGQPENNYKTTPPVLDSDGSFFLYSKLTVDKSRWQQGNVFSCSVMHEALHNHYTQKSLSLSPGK
light: B1 light
notes: also called 1-13; copies: 2 + 2
Take B21: the Mean binding response was 26.9 RU.

B22: anti-CD20 human IgG1 L234D/L235D/G236R (antibody)
heavy: B4 heavy with E238D, H239D
light: B1 light
notes: also called 1-18; copies: 2 + 2
For B22, the Mean binding response stood at 22 RU.

B23: anti-CD20 human IgG1 L234A/L235E/G236R (antibody)
heavy: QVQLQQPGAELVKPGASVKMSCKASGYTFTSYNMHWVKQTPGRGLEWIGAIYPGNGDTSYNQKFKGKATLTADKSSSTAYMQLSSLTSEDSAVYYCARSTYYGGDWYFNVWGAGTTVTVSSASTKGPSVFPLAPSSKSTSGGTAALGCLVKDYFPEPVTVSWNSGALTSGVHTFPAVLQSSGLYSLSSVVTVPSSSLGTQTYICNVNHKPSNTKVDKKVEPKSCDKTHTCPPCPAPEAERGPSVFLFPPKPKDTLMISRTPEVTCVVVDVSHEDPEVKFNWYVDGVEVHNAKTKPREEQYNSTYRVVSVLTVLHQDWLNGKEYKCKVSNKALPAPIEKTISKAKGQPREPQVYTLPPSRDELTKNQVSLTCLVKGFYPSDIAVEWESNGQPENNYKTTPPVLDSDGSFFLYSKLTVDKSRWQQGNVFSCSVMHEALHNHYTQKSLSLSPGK
light: B1 light
notes: also called 1-4; copies: 2 + 2
On to B23, for which the Mean binding response is 31.7 RU.

B24: anti-CD20 human IgG1 L234D/L235V/G236R (antibody)
heavy: B4 heavy with E238D, H239V
light: B1 light
notes: also called 1-31; copies: 2 + 2
Take B24: the Mean binding response is 27.2 RU.

B25: anti-CD20 human IgG1 L234D/L235Q/G236R (antibody)
heavy: B4 heavy with E238D, H239Q
light: B1 light
notes: also called 1-27; 2-9; copies: 2 + 2
Take B25: the Mean binding response amounted to 8.3 RU.

B26: anti-CD20 human IgG1 L234A/L235K/G236R (antibody)
heavy: not shown
light: B1 light
notes: also called 1-8; copies: 2 + 2
Take B26: the Mean binding response was determined as 34.2 RU.

B27: anti-CD20 human IgG1 L234D/L235M/G236R (antibody)
heavy: B4 heavy with E238D, H239M
light: B1 light
notes: also called 1-25; copies: 2 + 2
As for B27, the Mean binding response stood at 28.4 RU.

B28: anti-CD20 human IgG1 L234A/G236R (antibody)
heavy: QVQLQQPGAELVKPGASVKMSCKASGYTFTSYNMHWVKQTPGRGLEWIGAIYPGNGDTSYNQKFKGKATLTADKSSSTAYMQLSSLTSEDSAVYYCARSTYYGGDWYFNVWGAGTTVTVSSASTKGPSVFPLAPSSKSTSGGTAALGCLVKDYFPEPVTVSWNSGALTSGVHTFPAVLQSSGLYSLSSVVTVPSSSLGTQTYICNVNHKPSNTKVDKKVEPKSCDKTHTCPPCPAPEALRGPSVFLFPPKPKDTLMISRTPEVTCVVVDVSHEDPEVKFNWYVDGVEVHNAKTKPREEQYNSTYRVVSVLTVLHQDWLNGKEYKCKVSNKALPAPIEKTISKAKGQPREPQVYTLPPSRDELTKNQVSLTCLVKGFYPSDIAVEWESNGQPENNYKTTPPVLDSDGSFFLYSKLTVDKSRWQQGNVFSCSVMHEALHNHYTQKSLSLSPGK
light: B1 light
notes: also called 1-9; copies: 2 + 2
On to B28, for which the Mean binding response amounted to 8 RU.

B29: anti-CD20 human IgG1 L234E/L235E/G236R (antibody)
heavy: B4 heavy with H239E
light: B1 light
notes: also called 1-34; copies: 2 + 2
For the molecule B29, the Mean binding response stood at 30.9 RU.
